According to article PMC7922766:

Target: Full-length recombinant human SIRT1 (human) (UniProt Q96EB6)
UniProt Q96EB6, sequence (Q96EB6 whole entry): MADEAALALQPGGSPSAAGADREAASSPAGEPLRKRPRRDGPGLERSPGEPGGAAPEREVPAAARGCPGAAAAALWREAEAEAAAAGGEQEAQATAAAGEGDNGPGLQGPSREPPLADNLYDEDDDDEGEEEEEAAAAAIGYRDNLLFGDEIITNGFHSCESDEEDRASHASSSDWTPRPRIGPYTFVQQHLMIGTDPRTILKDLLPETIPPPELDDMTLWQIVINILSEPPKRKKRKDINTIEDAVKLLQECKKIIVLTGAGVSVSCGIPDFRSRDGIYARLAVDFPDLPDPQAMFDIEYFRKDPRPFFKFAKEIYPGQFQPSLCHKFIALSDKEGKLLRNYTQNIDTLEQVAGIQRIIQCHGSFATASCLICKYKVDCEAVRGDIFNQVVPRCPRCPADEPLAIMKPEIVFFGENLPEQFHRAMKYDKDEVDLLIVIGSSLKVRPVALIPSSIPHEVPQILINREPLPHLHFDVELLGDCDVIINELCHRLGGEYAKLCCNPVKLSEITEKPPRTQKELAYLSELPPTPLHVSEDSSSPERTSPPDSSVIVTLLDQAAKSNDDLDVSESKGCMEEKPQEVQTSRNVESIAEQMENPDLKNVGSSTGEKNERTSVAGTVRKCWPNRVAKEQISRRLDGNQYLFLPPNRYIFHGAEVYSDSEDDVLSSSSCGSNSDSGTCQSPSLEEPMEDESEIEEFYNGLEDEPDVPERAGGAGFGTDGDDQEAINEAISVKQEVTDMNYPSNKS

- Km of the peptide substrate in SIRT1-catalysed deacetylation (HPLC assay, 500 uM NAD+, 0.5 uM SIRT1, 100 mM phosphate pH 7.5, 37 °C): 46.4 µM
Substance: H4K16Ac synthetic peptide
